System: peptide library, one residue held at a place counted from the S/T acceptor
Assay: relative phosphorylation of the sub-library (ratio to the mean residue at this position); higher = residue favoured
Conditions: human
Method in brief: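 Human or orthologue kinase constructs, purified and recombinant, were incubated under kinase-specific conditions in 384-well plates with biotinylated degenerate peptide sub-libraries. Each sub-library fixed one residue at one position around a central Ser/Thr. Incubations lasted 90 min with peptides at 50 μM and 50 μM ATP spiked with γ-32P-ATP, after which spots on streptavidin membranes were phosphorimaged and quantified by densitometry. Relative sub-library phosphorylation is a ratio to the mean residue at that position.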

Sequence of LATS1, construct: aa589-end (O95835 589-1130, looked up): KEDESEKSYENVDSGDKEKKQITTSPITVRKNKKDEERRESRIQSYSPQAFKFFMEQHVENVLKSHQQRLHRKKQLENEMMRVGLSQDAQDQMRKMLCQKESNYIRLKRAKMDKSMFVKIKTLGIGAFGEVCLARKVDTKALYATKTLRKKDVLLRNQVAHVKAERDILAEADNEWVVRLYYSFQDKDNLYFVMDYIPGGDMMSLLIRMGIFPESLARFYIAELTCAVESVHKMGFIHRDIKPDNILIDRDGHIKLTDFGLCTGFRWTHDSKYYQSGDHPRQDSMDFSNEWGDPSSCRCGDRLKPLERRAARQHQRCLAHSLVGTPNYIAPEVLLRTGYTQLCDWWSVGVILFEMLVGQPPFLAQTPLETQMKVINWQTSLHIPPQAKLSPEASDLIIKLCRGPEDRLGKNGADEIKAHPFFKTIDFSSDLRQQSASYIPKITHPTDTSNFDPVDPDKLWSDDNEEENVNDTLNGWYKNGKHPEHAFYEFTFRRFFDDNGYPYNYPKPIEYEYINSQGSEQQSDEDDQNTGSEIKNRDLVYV

LATS1, construct: aa589-end (from UniProt O95835)
relative phosphorylation (A fixed, at +1): 0.659 | relative phosphorylation (A fixed, at +2): 0.785 | relative phosphorylation (A fixed, at +3): 0.976 | relative phosphorylation (A fixed, at +4): 0.856 | relative phosphorylation (A fixed, at -1): 0.615 | relative phosphorylation (A fixed, at -2): 0.872 | relative phosphorylation (A fixed, at -3): 0.639 | relative phosphorylation (A fixed, at -4): 1.08 | relative phosphorylation (A fixed, at -5): 0.8 | relative phosphorylation (D fixed, at +1): 1.01 | relative phosphorylation (D fixed, at +2): 1.11 | relative phosphorylation (D fixed, at +3): 1.46 | relative phosphorylation (D fixed, at +4): 1.45 | relative phosphorylation (D fixed, at -1): 1.88 | relative phosphorylation (D fixed, at -2): 1.91 | relative phosphorylation (D fixed, at -3): 1.24 | relative phosphorylation (D fixed, at -4): 0.946 | relative phosphorylation (D fixed, at -5): 1.01 | relative phosphorylation (E fixed, at +1): 1.3 | relative phosphorylation (E fixed, at +2): 2.1 | relative phosphorylation (E fixed, at +3): 1.28 | relative phosphorylation (E fixed, at +4): 1.52 | relative phosphorylation (E fixed, at -1): 0.865 | relative phosphorylation (E fixed, at -2): 1.3 | relative phosphorylation (E fixed, at -3): 0.564 | relative phosphorylation (E fixed, at -4): 0.822 | relative phosphorylation (E fixed, at -5): 0.706 | relative phosphorylation (F fixed, at +1): 0.776 | relative phosphorylation (F fixed, at +2): 0.66 | relative phosphorylation (F fixed, at +3): 0.867 | relative phosphorylation (F fixed, at +4): 0.785 | relative phosphorylation (F fixed, at -1): 0.27 | relative phosphorylation (F fixed, at -2): 0.756 | relative phosphorylation (F fixed, at -3): 0.375 | relative phosphorylation (F fixed, at -4): 0.839 | relative phosphorylation (F fixed, at -5): 0.611 | relative phosphorylation (G fixed, at +1): 0.751 | relative phosphorylation (G fixed, at +2): 0.85 | relative phosphorylation (G fixed, at +3): 1.17 | relative phosphorylation (G fixed, at +4): 1.34 | relative phosphorylation (G fixed, at -1): 1.3 | relative phosphorylation (G fixed, at -2): 0.893 | relative phosphorylation (G fixed, at -3): 0.853 | relative phosphorylation (G fixed, at -4): 1.04 | relative phosphorylation (G fixed, at -5): 1.09 | relative phosphorylation (H fixed, at +1): 0.946 | relative phosphorylation (H fixed, at +2): 1.2 | relative phosphorylation (H fixed, at +3): 1.03 | relative phosphorylation (H fixed, at +4): 1.22 | relative phosphorylation (H fixed, at -1): 0.891 | relative phosphorylation (H fixed, at -2): 0.974 | relative phosphorylation (H fixed, at -3): 1.2 | relative phosphorylation (H fixed, at -4): 1.6 | relative phosphorylation (H fixed, at -5): 4.19 | relative phosphorylation (I fixed, at +1): 0.957 | relative phosphorylation (I fixed, at +2): 1.34 | relative phosphorylation (I fixed, at +3): 0.784 | relative phosphorylation (I fixed, at +4): 0.743 | relative phosphorylation (I fixed, at -1): 0.21 | relative phosphorylation (I fixed, at -2): 0.298 | relative phosphorylation (I fixed, at -3): 0.257 | relative phosphorylation (I fixed, at -4): 0.481 | relative phosphorylation (I fixed, at -5): 0.476 | relative phosphorylation (K fixed, at +1): 1.23 | relative phosphorylation (K fixed, at +2): 0.623 | relative phosphorylation (K fixed, at +3): 1.27 | relative phosphorylation (K fixed, at +4): 0.844 | relative phosphorylation (K fixed, at -1): 2.38 | relative phosphorylation (K fixed, at -2): 1.36 | relative phosphorylation (K fixed, at -3): 1.78 | relative phosphorylation (K fixed, at -4): 1.15 | relative phosphorylation (K fixed, at -5): 0.971 | relative phosphorylation (L fixed, at +1): 1.46 | relative phosphorylation (L fixed, at +2): 1.29 | relative phosphorylation (L fixed, at +3): 0.961 | relative phosphorylation (L fixed, at +4): 0.707 | relative phosphorylation (L fixed, at -1): 0.438 | relative phosphorylation (L fixed, at -2): 0.373 | relative phosphorylation (L fixed, at -3): 0.312 | relative phosphorylation (L fixed, at -4): 0.62 | relative phosphorylation (L fixed, at -5): 0.52 | relative phosphorylation (M fixed, at +1): 1.8 | relative phosphorylation (M fixed, at +2): 0.941 | relative phosphorylation (M fixed, at +3): 0.791 | relative phosphorylation (M fixed, at +4): 0.994 | relative phosphorylation (M fixed, at -1): 0.667 | relative phosphorylation (M fixed, at -2): 0.692 | relative phosphorylation (M fixed, at -3): 0.427 | relative phosphorylation (M fixed, at -4): 0.8 | relative phosphorylation (M fixed, at -5): 0.74 | relative phosphorylation (N fixed, at +1): 0.907 | relative phosphorylation (N fixed, at +2): 1.12 | relative phosphorylation (N fixed, at +3): 0.955 | relative phosphorylation (N fixed, at +4): 1.26 | relative phosphorylation (N fixed, at -1): 1.2 | relative phosphorylation (N fixed, at -2): 1.08 | relative phosphorylation (N fixed, at -3): 0.765 | relative phosphorylation (N fixed, at -4): 0.939 | relative phosphorylation (N fixed, at -5): 0.868 | relative phosphorylation (P fixed, at +1): 0.648 | relative phosphorylation (P fixed, at +2): 0.816 | relative phosphorylation (P fixed, at +3): 1.08 | relative phosphorylation (P fixed, at +4): 0.982 | relative phosphorylation (P fixed, at -1): 3.01 | relative phosphorylation (P fixed, at -2): 0.99 | relative phosphorylation (P fixed, at -3): 2.34 | relative phosphorylation (P fixed, at -4): 1.42 | relative phosphorylation (P fixed, at -5): 0.834 | relative phosphorylation (Q fixed, at +1): 0.91 | relative phosphorylation (Q fixed, at +2): 0.846 | relative phosphorylation (Q fixed, at +3): 0.941 | relative phosphorylation (Q fixed, at +4): 0.924 | relative phosphorylation (Q fixed, at -1): 1.02 | relative phosphorylation (Q fixed, at -2): 1.41 | relative phosphorylation (Q fixed, at -3): 0.705 | relative phosphorylation (Q fixed, at -4): 1.02 | relative phosphorylation (Q fixed, at -5): 0.718 | relative phosphorylation (R fixed, at +1): 0.683 | relative phosphorylation (R fixed, at +2): 1.21 | relative phosphorylation (R fixed, at +3): 0.645 | relative phosphorylation (R fixed, at +4): 0.755 | relative phosphorylation (R fixed, at -1): 0.915 | relative phosphorylation (R fixed, at -2): 1.79 | relative phosphorylation (R fixed, at -3): 3.7 | relative phosphorylation (R fixed, at -4): 1.19 | relative phosphorylation (R fixed, at -5): 1.15 | relative phosphorylation (V fixed, at +1): 0.797 | relative phosphorylation (V fixed, at +2): 0.771 | relative phosphorylation (V fixed, at +3): 0.902 | relative phosphorylation (V fixed, at +4): 0.647 | relative phosphorylation (V fixed, at -1): 0.294 | relative phosphorylation (V fixed, at -2): 0.359 | relative phosphorylation (V fixed, at -3): 0.326 | relative phosphorylation (V fixed, at -4): 0.61 | relative phosphorylation (V fixed, at -5): 0.613 | relative phosphorylation (W fixed, at +1): 1.26 | relative phosphorylation (W fixed, at +2): 0.585 | relative phosphorylation (W fixed, at +3): 1.06 | relative phosphorylation (W fixed, at +4): 0.907 | relative phosphorylation (W fixed, at -1): 0.436 | relative phosphorylation (W fixed, at -2): 0.969 | relative phosphorylation (W fixed, at -3): 0.708 | relative phosphorylation (W fixed, at -4): 1.5 | relative phosphorylation (W fixed, at -5): 0.842 | relative phosphorylation (Y fixed, at +1): 0.9 | relative phosphorylation (Y fixed, at +2): 0.754 | relative phosphorylation (Y fixed, at +3): 0.827 | relative phosphorylation (Y fixed, at +4): 1.07 | relative phosphorylation (Y fixed, at -1): 0.604 | relative phosphorylation (Y fixed, at -2): 0.978 | relative phosphorylation (Y fixed, at -3): 0.824 | relative phosphorylation (Y fixed, at -4): 0.931 | relative phosphorylation (Y fixed, at -5): 0.863 | relative phosphorylation (pThr fixed, at +1): 1.2 | relative phosphorylation (pThr fixed, at +2): 1.09 | relative phosphorylation (pThr fixed, at +3): 1.2 | relative phosphorylation (pThr fixed, at +4): 2.38 | relative phosphorylation (pThr fixed, at -1): 0.769 | relative phosphorylation (pThr fixed, at -2): 0.586 | relative phosphorylation (pThr fixed, at -3): 0.536 | relative phosphorylation (pThr fixed, at -4): 0.599 | relative phosphorylation (pThr fixed, at -5): 0.598 | relative phosphorylation (pTyr fixed, at +1): 0.854 | relative phosphorylation (pTyr fixed, at +2): 0.716 | relative phosphorylation (pTyr fixed, at +3): 0.789 | relative phosphorylation (pTyr fixed, at +4): 1.15 | relative phosphorylation (pTyr fixed, at -1): 0.411 | relative phosphorylation (pTyr fixed, at -2): 0.431 | relative phosphorylation (pTyr fixed, at -3): 0.542 | relative phosphorylation (pTyr fixed, at -4): 0.578 | relative phosphorylation (pTyr fixed, at -5): 0.613

— the supplement of paper PMC9876800
